Data on one molecule can be found in patent US20120164754, “KIT AND METHOD OF DETERMINING NUCLEOTIDE SEQUENCE OF TARGET NUCLEIC ACID” (SAMSUNG ELECTRONICS CO., LTD., published 2012).

This data set deals with Zif268-HMGa1-mCherry fusion protein (Mus musculus? (Zif268) / Homo sapiens …). The data set is described as follows: SPR; about 140 nM; target immobilised on CM5 chip (Biacore). The protocol: Affinity of the fusion proteins prepared in Example 1 to a target nucleic acid nucleotide sequence was measured using a surface plasmon resonance (SPR) system (Biacore) to determine the equilibrium dissociation constant, Kd, for forming the fusion protein-target nucleic acid complex. After immobilization of the target nucleic acid (SEQ ID NO. 9) to a CM5 chip, the fusion proteins were loaded into the microfluidic chamber of the SPR.
Chain of Zif268-HMGa1-mCherry fusion protein (Mus musculus? (Zif268) / Homo sapiens …) (chain, as listed by the source): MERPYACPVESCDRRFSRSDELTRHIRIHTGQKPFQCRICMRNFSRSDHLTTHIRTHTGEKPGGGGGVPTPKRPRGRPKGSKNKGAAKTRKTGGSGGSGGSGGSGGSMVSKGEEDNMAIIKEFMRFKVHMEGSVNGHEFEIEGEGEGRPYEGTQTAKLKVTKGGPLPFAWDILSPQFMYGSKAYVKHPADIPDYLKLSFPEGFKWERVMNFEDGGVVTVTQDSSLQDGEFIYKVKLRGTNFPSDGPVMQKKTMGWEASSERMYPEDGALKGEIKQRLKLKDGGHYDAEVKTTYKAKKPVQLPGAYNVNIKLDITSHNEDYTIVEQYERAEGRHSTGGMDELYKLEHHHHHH

B1: target nucleic acid (Zif268 target) (dsDNA)
DNA 1: GTGTGTGTGTGATCTGCGTGGGCGGTAAG
DNA 2: CTTACCGCCCACGCAGATCACACACACAC
With B1, the Kd (as a rule, a measure of binding affinity in units of concentration) turned out to be 140 nM.
